Substrate: Nc1ncnc2c1ncn2[C@@H]1O[C@H](CO)[C@@H](O)[C@H]1O
Test: Adenosine kinase inhibition (filter binding assay)
Type: biochemical, human
Settings: other: adenosine as substrate; 37.0 °C

B1: WI-L2 adenosine kinase (Homo sapiens) (protein)
chain: MAAAEEEPKPKKLKVEAPQALRENILFGMGNPLLDISAVVDKDFLDKYSLKPNDQILAEDKHKELFDELVKKFKVEYHAGGSTQNSIKVAQWMIQQPHKAATFFGCIGIDKFGEILKRKAAEAHVDAHYYEQNEQPTGTCAACITGDNRSLIANLAAANCYKKEKHLDLEKNWMLVEKARVCYIAGFFLTVSPESVLKVAHHASENNRIFTLNLSAPFISQFYKESLMKVMPYVDILFGNETEAATFAREQGFETKDIKEIAKKTQALPKMNSKRQRIVIFTQGRDDTIMATESEVTAFAVLDQDQKEIIDTNGAGDAFVGGFLSQLVSDKPLTECIRAGHYAASIIIRRTGCTFPEKPDFH
notes: added to the cell-free WI-L2 lysate to give 5 μM final assay concentration; endogenous in cells; host or cells: WI-L2 B lymphoblast cells (cell-free lysate)
Km: 0.9 µM
